T1: Rad51 (S. cerevisiae), P25454
T1 chain: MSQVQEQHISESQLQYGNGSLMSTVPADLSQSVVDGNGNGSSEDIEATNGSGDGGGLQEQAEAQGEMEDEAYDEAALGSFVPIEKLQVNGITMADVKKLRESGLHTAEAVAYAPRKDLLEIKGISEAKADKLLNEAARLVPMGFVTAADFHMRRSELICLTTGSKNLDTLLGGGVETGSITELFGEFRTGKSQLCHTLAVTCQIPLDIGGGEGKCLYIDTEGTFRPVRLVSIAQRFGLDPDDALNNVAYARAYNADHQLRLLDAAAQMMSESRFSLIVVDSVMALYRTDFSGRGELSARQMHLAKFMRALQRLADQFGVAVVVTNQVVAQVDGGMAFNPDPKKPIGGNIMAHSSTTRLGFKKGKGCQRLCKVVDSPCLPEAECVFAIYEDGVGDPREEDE

B1: Rad51 (natural protein, S. cerevisiae, UniProt P25454 1-400, looked up)
chain: MSQVQEQHISESQLQYGNGSLMSTVPADLSQSVVDGNGNGSSEDIEATNGSGDGGGLQEQAEAQGEMEDEAYDEAALGSFVPIEKLQVNGITMADVKKLRESGLHTAEAVAYAPRKDLLEIKGISEAKADKLLNEAARLVPMGFVTAADFHMRRSELICLTTGSKNLDTLLGGGVETGSITELFGEFRTGKSQLCHTLAVTCQIPLDIGGGEGKCLYIDTEGTFRPVRLVSIAQRFGLDPDDALNNVAYARAYNADHQLRLLDAAAQMMSESRFSLIVVDSVMALYRTDFSGRGELSARQMHLAKFMRALQRLADQFGVAVVVTNQVVAQVDGGMAFNPDPKKPIGGNIMAHSSTTRLGFKKGKGCQRLCKVVDSPCLPEAECVFAIYEDGVGDPREEDE
notes: Oligomeric alone in solution; also called full-length unlabeled Rad51

The values that follow come from publication PMC12218292 (Nature Communications, 2025).

Usually stoichiometry N stands for a count of units in the complex or per binding partner.

One test deals with T2, Rad52 (295–408) (S. cerevisiae, UniProt P06778 295-408, uniform 15N labelling).
T2 construct: numbered from the first AUG codon in RAD52 mRNA (protein of 471 residues); Cloned in pETM30; also called Rad52C-ter; Rad52-Cter; source: E. coli BL21(DE3), purified (GSH-sepharose, TEV cleavage, Ni Sepharose, PD10)
T2 sequence (P06778 295-408): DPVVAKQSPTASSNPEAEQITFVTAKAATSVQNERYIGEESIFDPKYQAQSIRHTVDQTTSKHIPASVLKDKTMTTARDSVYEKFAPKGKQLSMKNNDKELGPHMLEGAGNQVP
Nature of the test: SEC-SAXS; Rad51 + Rad52 (295–408) 1:1; SWING beamline in SEC mode, Superdex 5/150 GL column; peak deconvolution; molecular weight from SAXS. As to conditions: both partners purified.
As for B1, the “stoichiometry N” value is 1.

For another test, the target named is Rad51 (in yeast cells) (UniProt P25454). Nature of the test: co-immunoprecipitation (co-IP). As to conditions: read off a plot.
The molecule Rad52-FLAG (from UniProt P06778) A319 had an other: interaction loss by coIP (%) of 99%.

Turning to Rad52-FLAG (from UniProt P06778) L363, the other: interaction loss by coIP (%) was 27%.

Rad52-FLAG (from UniProt P06778) P381 gave an other: interaction loss by coIP (%) of 79%.

Regarding Rad52-FLAG (from UniProt P06778) S355, the other: interaction loss by coIP (%) came out at 100%.

Regarding Rad52-FLAG (from UniProt P06778) S374, the other: interaction loss by coIP (%) came out at 33%.

Molecule Rad52-FLAG (from UniProt P06778) T318 yielded an other: interaction loss by coIP (%) of 97%.

Molecule Rad52-FLAG (from UniProt P06778) V317 showed an other: interaction loss by coIP (%) of 80%.

In the case of Rad52-FLAG (from UniProt P06778) V325, the other: interaction loss by coIP (%) is 89%.

Molecule Rad52-FLAG (from UniProt P06778) V350 had an other: interaction loss by coIP (%) of 49%.

Take Rad52-FLAG (from UniProt P06778) V358E: the other: interaction loss by coIP (%) came out at 100%.

For the next test, the target named is T1, Rad51 (S. cerevisiae), P25454. Put plainly: SEC-SAXS; Rad51 + Rad52 (295–408) 1:1; SWING beamline in SEC mode, Superdex 5/150 GL column; peak deconvolution; molecular weight from SAXS. As to conditions: remark: other sources report otherwise.
With B1, the stoichiometry N came to 4.
